Source: PMC11249618, “Presenilin2 D439A Mutation Induces Dysfunction of Mitochondrial Fusion/Fission Dynamics and Abnormal Regulation of GTPase Activity” (Molecular Neurobiology, 2023)

Biological target: T1, His-Miro2(220–592) (UniProt Q8IXI1 220-592)
T1 construct: Mitochondrial Rho GTPase 2 (Miro2), amino acids 220–592, in pET-32a; source: E. coli BL21, purified
Test: pull-down; GST pull-down of recombinant GST-PS2 fragments with recombinant His-Miro2 fragments; bound material eluted with SDS sample buffer, SDS-PAGE and Western blot (Fig. 5C, D)
Conditions: both partners purified

T1 sequence (Q8IXI1 220-592): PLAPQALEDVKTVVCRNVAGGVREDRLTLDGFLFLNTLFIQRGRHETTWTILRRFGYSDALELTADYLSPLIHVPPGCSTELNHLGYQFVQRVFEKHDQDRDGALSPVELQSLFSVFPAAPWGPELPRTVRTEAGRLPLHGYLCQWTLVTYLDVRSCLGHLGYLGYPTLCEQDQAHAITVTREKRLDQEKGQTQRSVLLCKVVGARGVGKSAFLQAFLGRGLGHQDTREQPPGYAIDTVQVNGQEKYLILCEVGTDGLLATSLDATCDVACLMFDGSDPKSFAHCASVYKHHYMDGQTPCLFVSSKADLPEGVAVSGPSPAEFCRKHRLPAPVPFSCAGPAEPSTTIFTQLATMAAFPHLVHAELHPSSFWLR

B1: GST-PS2(271–361) (domain or fragment)
chain: not shown
notes: source: E. coli BL21, purified
  binding result: binds
